The target of this assay is microtubules (polymer of tubulin). As to the kind of experiment: single-molecule TIRF microscopy on microtubules.
Sequence of microtubules (polymer of tubulin) (P68363 whole entry, chain 1 of 2): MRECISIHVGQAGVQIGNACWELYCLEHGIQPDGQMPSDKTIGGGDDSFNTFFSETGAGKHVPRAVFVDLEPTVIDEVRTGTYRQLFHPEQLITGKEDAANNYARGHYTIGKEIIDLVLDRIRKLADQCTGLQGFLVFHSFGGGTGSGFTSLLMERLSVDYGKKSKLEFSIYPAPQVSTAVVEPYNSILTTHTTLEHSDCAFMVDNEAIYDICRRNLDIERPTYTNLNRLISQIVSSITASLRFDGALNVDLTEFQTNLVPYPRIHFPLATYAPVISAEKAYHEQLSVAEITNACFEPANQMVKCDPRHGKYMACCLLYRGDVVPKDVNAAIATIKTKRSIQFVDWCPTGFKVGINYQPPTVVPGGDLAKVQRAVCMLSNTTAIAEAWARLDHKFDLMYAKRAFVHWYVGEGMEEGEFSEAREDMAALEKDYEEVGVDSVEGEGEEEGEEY
Sequence of microtubules (polymer of tubulin) (A8K068 whole entry, chain 2 of 2, further chain): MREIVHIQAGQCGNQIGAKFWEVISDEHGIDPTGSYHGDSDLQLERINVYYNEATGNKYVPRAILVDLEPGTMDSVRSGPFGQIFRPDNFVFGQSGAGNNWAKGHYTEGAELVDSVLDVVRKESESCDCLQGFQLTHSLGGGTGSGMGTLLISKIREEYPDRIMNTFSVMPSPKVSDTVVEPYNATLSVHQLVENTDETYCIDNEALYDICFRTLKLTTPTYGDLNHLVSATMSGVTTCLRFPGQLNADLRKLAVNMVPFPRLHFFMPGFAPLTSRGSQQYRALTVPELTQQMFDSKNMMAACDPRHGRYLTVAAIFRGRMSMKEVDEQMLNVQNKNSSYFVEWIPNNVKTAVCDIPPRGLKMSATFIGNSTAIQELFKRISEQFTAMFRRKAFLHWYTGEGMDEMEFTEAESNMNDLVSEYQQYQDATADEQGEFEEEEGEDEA

Turning to “EB1_(FKBP) (human EB1 fused at its C-terminus to FKBP)”, the dwell time was 53 ms and the mean dwell time is 0.054 s.

Source of the values: article PMC3963495.
